Results taken from PMC12520357 (2025).

B1: Reg1-FLAG (wild type) [S. cerevisiae] / Snf1-GFP [S. cerevisiae] (parent complex)
chain 1: MSTNLANYFAGKKDIENEHVNRNASHESNSKSDVKISGNDNDNDEDMGPSVSMAVQAKNDDDFHKSTFNLKRTRSMGLLDEYIDPTKKLLGRSDDLYDNDNEYYDNSSNNSSSNSSDDDYDDGYQEHSTSVSPPPADNDSYLIPQDDNDVVVEPERHVDYLSHEWKESEISNSWKYIILKKKKRDVDLVNAARLENASWRTWAKARNNLKTVSPEVVNWSKDSDVTWLYGPIVRDSEGNAQSEEEHDLERGYGSDDENSKRISMPTKNSKSIAAAPKPILKKRTVTEIIEDNALWKLNEARKHMTEMKHASVIMDPNGNKNVHDDFDALAAQVNAQYYHYPKESNSSVSLKSQHSDKKDNSTIPNPVGENSNGGGDKGEEDLHLKSALHVQNNRSTAQSNKSILENSTNDRKANLDQNLNSPDNNRFPSSTSSSNRDNENNSMGLSSILTSNPSEKSNKPTKNRHIHFNDRVEQCMALRYPASQSEDDESDDENKQYVDVNNNANVTTINNNRTPLLAIQHKSIPINSATEHLNKNTSDDDTSSQSSSSSHSDDEEHGGLYINARFSRRSDSGVHSPITDNSSVASSTTSRAHVRPIIKLLPDTTLNYGSDEESDNGEFNGYGNAVSHNVNTSRGYDYIYDYNSVYTGDTSSFLPVDSCDIVDVPEGMDLQTAIADDNASNYEFNNAVESKEKHVPQLHKASANNTTRQHGSHMLLYDDDNYSSSSDSEQQFIEDSQYNSSDDEEEEDDDDQEVDDNHDEGLSLRRTLSLGKSGSTNSLYDLAQPSLSSATPQQKNPTNFTGGKTDVDKDAQLAVRPYPLKRNSSSGNFIFNSDSEEESSSEEEQRPLPANSQLVNRSVLKGSVTPANISSQKKKALPKQPKASDSSQSFRIVNNTPSPAEVGASDVAIEGYFSPRNESIKSVVSGGNMMDHQDHSEMDTLAKGFENCHINNASKLKDKKVDSVQTTRKEASLTDSSNESLHKVVQNARGMASKYLHSWKKSDVKPQENGNDSS
chain 2: MSSNNNTNTAPANANSSHHHHHHHHHHHHHGHGGSNSTLNNPKSSLADGAHIGNYQIVKTLGEGSFGKVKLAYHTTTGQKVALKIINKKVLAKSDMQGRIEREISYLRLLRHPHIIKLYDVIKSKDEIIMVIEYAGNELFDYIVQRDKMSEQEARRFFQQIISAVEYCHRHKIVHRDLKPENLLLDEHLNVKIADFGLSNIMTDGNFLKTSCGSPNYAAPEVISGKLYAGPEVDVWSCGVILYVMLCRRLPFDDESIPVLFKNISNGVYTLPKFLSPGAAGLIKRMLIVNPLNRISIHEIMQDDWFKVDLPEYLLPPDLKPHPEEENENNDSKKDGSSPDNDEIDDNLVNILSSTMGYEKDEIYESLESSEDTPAFNEIRDAYMLIKENKSLIKDMKANKSVSDELDTFLSQSPPTFQQQSKSHQKSQVDHETAKQHARRMASAITQQRTYHQSPFMDQYKEEDSTVSILPTSLPQIHRANMLAQGSPAASKISPLVTKKSKTRWHFGIRSRSYPLDVMGEIYIALKNLGAEWAKPSEEDLWTIKLRWKYDIGNKTNTNEKIPDLMKMVIQLFQIETNNYLVDFKFDGWESSYGDDTTVSNISEDEMSTFSAYPFLHLTTKLIMELAVNSQSN
B2: Reg1-FLAG (wild type) [S. cerevisiae] / Glc7-GFP [S. cerevisiae] (parent complex)
chain 1: B1 chain 1
chain 2: MDSQPVDVDNIIDRLLEVRGSKPGQQVDLEENEIRYLCSKARSIFIKQPILLELEAPIKICGDIHGQYYDLLRLFEYGGFPPESNYLFLGDYVDRGKQSLETICLLLAYKIKYPENFFILRGNHECASINRIYGFYDECKRRYNIKLWKTFTDCFNCLPIAAIIDEKIFCMHGGLSPDLNSMEQIRRVMRPTDIPDVGLLCDLLWSDPDKDIVGWSENDRGVSFTFGPDVVNRFLQKQDMELICRAHQVVEDGYEFFSKRQLVTLFSAPNYCGEFDNAGAMMSVDESLLCSFQILKPAQKSLPRQAGGRKKK

Variants of: B1
Assay: co-immunoprecipitation (anti-FLAG IP, immunoblot quantification); n = 3; reg1Δ Snf1-GFP Glc7-GFP cells; parent: 1; read off a plot

Variant | ratio to parent
chain 1 P278Q | ~0.95
chain 1 A54T | ~0.84
chain 1 N624S | ~0.74
chain 1 P231S | ~1.1
chain 1 W165G | ~0.8

Variants of: B2
Assay: as above

Variant | ratio to parent
chain 1 N624S | ~1.5
chain 1 P278Q | ~0.8
chain 1 P231S | ~0.81
chain 1 A54T | ~0.93
chain 1 W165G | ~0.66
